Assay results: US20190338011A1

Tests used:
[1] = target: human NKG2D ligand on human tumor cell lines (Jurkat, RPMI8866, K562, Daubi, U937, ECC-1); assay: cell-based or functional assay
[2] = target: human MIC-A (expressed on P815 mastocytoma cells) (human) (UniProt Q29983); assay: cell-based or functional assay
UniProt Q29983, sequence (Q29983 24-383): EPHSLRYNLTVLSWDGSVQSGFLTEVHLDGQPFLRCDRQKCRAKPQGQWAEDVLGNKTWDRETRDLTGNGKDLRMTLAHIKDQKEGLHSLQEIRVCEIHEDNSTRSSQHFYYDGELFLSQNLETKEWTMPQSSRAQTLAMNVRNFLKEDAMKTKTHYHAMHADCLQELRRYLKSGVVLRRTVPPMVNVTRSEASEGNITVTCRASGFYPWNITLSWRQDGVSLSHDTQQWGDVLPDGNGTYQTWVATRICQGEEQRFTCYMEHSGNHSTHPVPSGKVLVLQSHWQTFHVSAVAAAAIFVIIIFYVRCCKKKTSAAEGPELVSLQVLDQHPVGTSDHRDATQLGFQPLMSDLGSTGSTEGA

Specific Lysis (%) of K562, Effector:Target Ratio 1, with control antibody [1]: 3.1% | Specific Lysis (%) of K562, Effector:Target Ratio 5, with control antibody [1]: 17.6% | Specific Lysis (%) of K562, Effector:Target Ratio 25, with control antibody [1]: 53.8% | Specific Lysis (%) of RPMI8866, Effector:Target Ratio 1, with control antibody [1]: 9.3% | Specific Lysis (%) of RPMI8866, Effector:Target Ratio 5, with control antibody [1]: 27.4% | Specific Lysis (%) of RPMI8866, Effector:Target Ratio 25, with control antibody [1]: 41.6% | Specific Lysis (%) of P815/MIC-A, Effector:Target Ratio 1 [2]: 5.4% | Specific Lysis (%) of P815/MIC-A, Effector:Target Ratio 5 [2]: 17.3% | Specific Lysis (%) of P815/MIC-A, Effector:Target Ratio 25 [2]: 35.4%
Substance: human chimeric NKG2D (human CD3ζ attached to the N-terminus of human NKG2D) (receptor)
